According to paper PMC9960064 (The Journal of Cell Biology, 2023):
Residue numbers refer to the chain shown, from its start. Numbers in names are those of the source. Where “and” joins values, the source holds several entries; their conditions need not be identical. Equal entries are not always repeated. Values belong to the binder of their own block, whether it stands above or below them.

Experiments:
β′604-H6 = target: T1, β′604-H6 (yeast (S. cerevisiae), UniProt P41811 1-604); test: pull-down
T1 sequence (looked up): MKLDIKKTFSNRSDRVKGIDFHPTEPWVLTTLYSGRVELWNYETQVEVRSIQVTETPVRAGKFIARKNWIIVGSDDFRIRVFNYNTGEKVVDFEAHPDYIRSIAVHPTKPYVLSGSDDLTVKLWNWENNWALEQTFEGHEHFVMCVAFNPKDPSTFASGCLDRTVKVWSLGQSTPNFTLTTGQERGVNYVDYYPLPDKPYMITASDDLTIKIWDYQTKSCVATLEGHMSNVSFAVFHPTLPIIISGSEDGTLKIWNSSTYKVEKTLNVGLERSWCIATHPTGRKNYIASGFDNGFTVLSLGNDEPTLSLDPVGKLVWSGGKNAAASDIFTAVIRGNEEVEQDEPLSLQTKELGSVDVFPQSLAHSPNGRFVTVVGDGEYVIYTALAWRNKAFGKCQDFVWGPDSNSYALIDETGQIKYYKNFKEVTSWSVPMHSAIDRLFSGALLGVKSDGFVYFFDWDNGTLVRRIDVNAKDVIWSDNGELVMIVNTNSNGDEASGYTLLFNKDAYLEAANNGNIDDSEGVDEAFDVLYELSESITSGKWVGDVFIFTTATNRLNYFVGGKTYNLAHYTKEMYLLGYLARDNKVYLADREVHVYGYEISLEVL

[1] = target: T2, β′-COP residues 1–604 with a C-terminal GST tag (yeast (S. cerevisiae), UniProt P41811 1-604); test: pull-down
T2 sequence (looked up): T1 sequence (looked up)

[2] = target: T3, mutant β′-COP (D437A/D450A), residues 1–604, untagged (yeast (S. cerevisiae), UniProt P41811 1-604, D437A | D450A); test: ITC
T3 sequence (looked up): T1 sequence (looked up) with D437A, D450A

[3] = target: T4, untagged β′-COP residues 1–604 (yeast (S. cerevisiae), UniProt P41811 1-604); test: ITC
T4 sequence (looked up): T1 sequence (looked up)

[4] = target: T5, β′-COP D98A/D117A, residues 1–604, untagged (yeast (S. cerevisiae), UniProt P41811 1-604, D98A | D117A); test: ITC
T5 sequence (looked up): T1 sequence (looked up) with D98A, D117A

[5] = target: T6, N-terminal β′-COP propeller (residues 1–304), untagged (yeast (S. cerevisiae), UniProt P41811 1-304); test: ITC
T6 sequence (looked up): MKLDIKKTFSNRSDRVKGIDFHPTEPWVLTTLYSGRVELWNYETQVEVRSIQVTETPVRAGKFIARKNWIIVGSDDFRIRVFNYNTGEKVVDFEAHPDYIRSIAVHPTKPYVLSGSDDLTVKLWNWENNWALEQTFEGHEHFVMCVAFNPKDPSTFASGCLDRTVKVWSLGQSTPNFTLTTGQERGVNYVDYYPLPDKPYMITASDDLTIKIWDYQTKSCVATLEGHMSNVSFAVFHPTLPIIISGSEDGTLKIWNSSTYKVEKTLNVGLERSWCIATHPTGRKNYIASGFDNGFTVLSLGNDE

B3: untagged Glo3 residues 230–290 (domain or fragment, yeast (S. cerevisiae), UniProt P38682 230-290, looked up)
chain: SQDKKKHSILSSSRKPTRLTAKKVDKSQAEDLFDQFKKEAQQEKEDEFTNSSSSTKIRQND
Kd [2]: 18 µM | Kd [3]: 0.6 µM and 0.8 to 6 µM | stoichiometry N [3]: 1 | binding result [4]: binds

B5: Glo3 (residues 230–290) K233E/K234E/K235E (domain or fragment, yeast (S. cerevisiae), UniProt P38682 230-290, looked up)
chain: B3 chain with K4E, K5E, K6E
Kd [3]: < 300 µM

B6: Glo3 (residues 230–290) K233E (domain or fragment, yeast (S. cerevisiae), UniProt P38682 230-290, looked up)
chain: B3 chain with K4E
Kd [3]: ~12 µM

B7: Glo3 residues 220–290, untagged (domain or fragment, yeast (S. cerevisiae), UniProt P38682 220-290, looked up)
chain: TASRKKPVLNSQDKKKHSILSSSRKPTRLTAKKVDKSQAEDLFDQFKKEAQQEKEDEFTNSSSSTKIRQND
binding result [3]: binds

Binder: SQDKKKHSILSSSRKPTRLTAKKVDKSQAEDLFDQFKKEAQ (domain or fragment, yeast (S. cerevisiae), UniProt P38682 230-270, looked up) [Glo3 residues 230–270, untagged]
binding result [3]: binds

The next lines start with the values.

binding result (β′604-H6): binds
B1: GST-BoCCS, Glo3 residues 208–383 (domain or fragment, yeast (S. cerevisiae), UniProt P38682 208-383, looked up)
chain: KTTVTKTRSSILTASRKKPVLNSQDKKKHSILSSSRKPTRLTAKKVDKSQAEDLFDQFKKEAQQEKEDEFTNSSSSTKIRQNDYDSQFMNNSKGNNNNSIDDINTQPDEFNDFLNDTSNSFDTTRKEQQDTLTPKFAKLGFGMTMNDANDLAKQQKESQKIAQGPRYTGRIAERYG

binding result [1]: binds
B2: full-length Glo3-H8 (natural protein)
chain: not shown

Kd [3]: ~12 µM
B4: Glo3 (residues 230–290) K251E/K252E/K255E (domain or fragment, yeast (S. cerevisiae), UniProt P38682 230-290, looked up)
chain: B3 chain with K22E, K23E, K26E

Kd [5]: < 300 µM | Kd [3]: ~1 µM | stoichiometry N [3]: 1
B8: untagged Glo3 BoCCS fragment (residues 230–300) (domain or fragment, yeast (S. cerevisiae), UniProt P38682 230-300, looked up)
chain: SQDKKKHSILSSSRKPTRLTAKKVDKSQAEDLFDQFKKEAQQEKEDEFTNSSSSTKIRQNDYDSQFMNNSK
